Source: PMC6323126

B1: FHA domain (residues 5–135) of SLMAP [human] / MST2 kinase domain (residues 1–308) [human] (parent)
chain 1: LAIFTCRPNSHPFQERHVYLDEPIKIGRSVARCRPAQNNATFDCKVLSRNHALVWFDHKTGKFYLQDTKSSNGTFINSQRLSRGSEESPPCEILSGDIIQFGVDVTENTRKVTHGCIVSTIKLFLPDGMEA
chain 2: MEQPPAPKSKLKKLSEDSLTKQPEEVFDVLEKLGEGSYGSVFKAIHKESGQVVAIKQVPVESDLQEIIKEISIMQQCDSPYVVKYYGSYFKNTDLWIVMEYCGAGSVSDIIRLRNKTLIEDEIATILKSTLKGLEYLHFMRKIHRDIKAGNILLNTEGHAKLADFGVAGQLTDTMAKRNTVIGTPFWMAPEVIQEIGYNCVADIWSLGITSIEMAEGKPPYADIHPMRAIFMIPTNPPPTFRKPELWSDDFTDFVKKCLVKNPEQRATATQLLQHPFIKNAKPVSILRDLITEAMEIKAKRHEEQQRE

Variants of: B1
Assay: BLI
Settings: with MST2 kinase domain (residues 1–308) [human]; read at the end of association (about 360 s); parent: 2.1; read off a plot

Variant	response
chain 1 LAIFTCRPNSHPFQERHVYLDEPIKIGRSVARCRPAQNNATFDCKVLSANHALVWFDHKTGKFYLQDTKSSNGTFINSQRLSRGSEESPPCEILSGDIIQFGVDVTENTRKVTHGCIVSTIKLFLPDGMEA [chain 1 R49A]	0.57 nm
